From patent publication US20240018184A1

Assays:
[1] = target: mAb (sample of Example 11, 4.28 mg/ml); assay: load volume to 35% breakthrough, PCC columns, CIP with 2 M NaOH
[2] = target: Cy5-hIgG (Cy5-labelled human immunoglobulin G) (human); assay: confocal microscopy of beads with Cy5-hIgG, after 16 h in 1 M NaOH
[3] = target: Cy5-hIgG (Cy5-labelled human immunoglobulin G) (human); assay: confocal microscopy of beads with Cy5-hIgG, after 8 h in 2 M NaOH
[4] = target: human polyclonal IgG (Gammanorm) (human); assay: pH gradient elution (citrate pH 6-3) from column

| Substance | original capacity remaining [1] [%] | binding capacity lost [2] [%] | Ig-binding capacity lost [3] [%] | Elution pH (peak 1) [4] [pH] | Elution pH (peak 2) [4] [pH] |
| --- | --- | --- | --- | --- | --- |
| MabSelect SuRe (ligand of the commercial reference matrix) | < 80 |  |  |  |  |
| MabSelect SuRe LX (ligand of the commercial reference matrix) |  | 50 | 50 | 4.01 | 3.7 |
| Zvar(Q9A, N11E, Q40V, A42K, N43A, L44I)6 (designed binder) |  |  |  | 4.24 | 3.81 |
